Reference: doi:10.1101/507483
Where two headings read alike, the source gives them in different places.

How the values were obtained:
[1] = biological target: TagA^ΔC, N-terminal domain of TagA from Thermoanaerobacter italicus (residues Met1-Gly195) (Thermoanaerobacter italicus); test: AUC
[2] = biological target: TagA^ΔC, N-terminal domain of TagA from Thermoanaerobacter italicus (residues Met1-Gly195) (Thermoanaerobacter italicus); test: AUC; remark: listed apart in the source

Kd [1]: 7.4 µM
stoichiometry N [1]: 2
Kd [2]: 3.5 µM
stoichiometry N [2]: 2
Substance: TagA^ΔC, N-terminal domain of TagA from Thermoanaerobacter italicus (residues Met1-Gly195) (domain or fragment)
